Experiment [1] deals with T1, HCoV-229E spike antigens (bead panel) (HCoV-229E, UniProt P15423 16-1115).
T1 sequence: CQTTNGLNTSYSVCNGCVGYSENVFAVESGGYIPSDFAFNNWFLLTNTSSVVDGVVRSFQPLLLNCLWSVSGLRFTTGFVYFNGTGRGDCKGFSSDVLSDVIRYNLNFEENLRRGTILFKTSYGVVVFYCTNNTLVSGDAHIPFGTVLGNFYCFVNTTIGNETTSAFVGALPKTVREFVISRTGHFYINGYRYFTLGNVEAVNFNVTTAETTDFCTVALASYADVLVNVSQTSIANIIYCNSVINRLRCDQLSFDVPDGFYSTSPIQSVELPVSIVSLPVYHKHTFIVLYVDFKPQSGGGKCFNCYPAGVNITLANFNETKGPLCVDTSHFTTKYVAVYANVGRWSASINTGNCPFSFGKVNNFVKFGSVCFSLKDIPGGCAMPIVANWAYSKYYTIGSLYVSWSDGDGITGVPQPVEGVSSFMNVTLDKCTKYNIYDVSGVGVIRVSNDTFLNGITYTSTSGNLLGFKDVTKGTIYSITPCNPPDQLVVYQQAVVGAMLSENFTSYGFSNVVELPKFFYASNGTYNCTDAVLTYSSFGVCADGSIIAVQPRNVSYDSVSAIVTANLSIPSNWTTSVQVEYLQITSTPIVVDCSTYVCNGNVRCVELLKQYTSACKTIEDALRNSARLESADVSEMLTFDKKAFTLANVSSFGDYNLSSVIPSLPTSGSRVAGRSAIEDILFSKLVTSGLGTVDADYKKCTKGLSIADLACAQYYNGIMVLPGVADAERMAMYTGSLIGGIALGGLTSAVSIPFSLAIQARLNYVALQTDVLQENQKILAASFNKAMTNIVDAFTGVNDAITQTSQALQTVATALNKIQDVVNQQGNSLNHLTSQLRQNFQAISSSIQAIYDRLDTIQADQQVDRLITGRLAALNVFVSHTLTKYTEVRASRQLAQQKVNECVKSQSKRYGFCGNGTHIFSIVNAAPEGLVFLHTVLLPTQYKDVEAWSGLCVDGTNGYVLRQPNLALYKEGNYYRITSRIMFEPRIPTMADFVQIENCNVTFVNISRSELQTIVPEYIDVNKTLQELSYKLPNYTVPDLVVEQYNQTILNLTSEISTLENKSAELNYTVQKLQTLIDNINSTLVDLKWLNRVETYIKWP
Put plainly: multiplex bead assay.

The target in experiment [2] is T2, HCoV-OC43 spike antigens (bead panel) (HCoV-OC43, UniProt P36334 14-1297).
T2 sequence: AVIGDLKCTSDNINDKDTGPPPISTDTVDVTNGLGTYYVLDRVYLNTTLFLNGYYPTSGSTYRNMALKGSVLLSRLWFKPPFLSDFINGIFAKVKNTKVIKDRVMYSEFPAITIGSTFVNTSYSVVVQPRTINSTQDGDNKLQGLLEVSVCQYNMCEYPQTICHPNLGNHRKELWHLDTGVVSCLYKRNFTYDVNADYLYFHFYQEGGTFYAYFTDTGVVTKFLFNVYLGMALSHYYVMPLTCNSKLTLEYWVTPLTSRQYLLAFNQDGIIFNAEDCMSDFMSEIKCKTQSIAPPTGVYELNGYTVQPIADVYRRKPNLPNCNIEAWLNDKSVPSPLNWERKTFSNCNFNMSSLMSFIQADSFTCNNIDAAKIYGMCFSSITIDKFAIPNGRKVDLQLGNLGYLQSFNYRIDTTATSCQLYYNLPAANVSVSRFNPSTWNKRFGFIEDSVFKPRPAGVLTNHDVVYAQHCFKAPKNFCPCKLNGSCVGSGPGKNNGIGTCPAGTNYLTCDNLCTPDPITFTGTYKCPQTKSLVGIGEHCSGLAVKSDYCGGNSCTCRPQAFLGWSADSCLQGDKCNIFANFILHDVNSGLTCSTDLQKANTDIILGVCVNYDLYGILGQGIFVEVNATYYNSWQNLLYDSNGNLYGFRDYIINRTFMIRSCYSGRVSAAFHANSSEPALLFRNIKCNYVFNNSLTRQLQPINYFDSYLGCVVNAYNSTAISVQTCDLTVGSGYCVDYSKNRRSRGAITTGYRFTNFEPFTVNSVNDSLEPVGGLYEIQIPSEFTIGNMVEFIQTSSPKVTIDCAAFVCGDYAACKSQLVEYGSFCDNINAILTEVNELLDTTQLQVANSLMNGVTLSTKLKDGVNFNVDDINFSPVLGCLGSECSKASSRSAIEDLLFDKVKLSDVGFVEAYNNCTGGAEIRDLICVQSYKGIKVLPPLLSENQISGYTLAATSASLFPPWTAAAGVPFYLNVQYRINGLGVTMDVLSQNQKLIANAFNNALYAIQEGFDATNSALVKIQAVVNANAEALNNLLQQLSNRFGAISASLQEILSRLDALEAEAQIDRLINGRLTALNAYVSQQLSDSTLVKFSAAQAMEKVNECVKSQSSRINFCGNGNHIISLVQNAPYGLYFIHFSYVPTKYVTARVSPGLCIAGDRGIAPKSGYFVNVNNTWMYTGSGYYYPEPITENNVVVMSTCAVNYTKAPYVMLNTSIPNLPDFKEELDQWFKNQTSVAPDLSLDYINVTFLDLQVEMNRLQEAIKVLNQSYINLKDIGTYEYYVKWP
Put plainly: multiplex bead assay.

From patent publication US20240101645A1 (HENRY M JACKSON FOUNDATION FOR THE ADVANCEMENT OF MILITARY …, published 2024) come the findings set out here.

B1: COV_2193 (antibody, V domains shown)
VH: QVQLVQSGAEVKKPGASVKVSCKVSGYTLTDLSMHWVRQTPGKGLEWMGGFDAEDGETIYAQNFQGRVTMTEDTSIDVAYMELSSLRSEDTAVYYCATGSVGPDYWGQGTLVTVSS
VL: SSELTQDPAVSVALGQTVRITCQGDSLRSYYASWFQQKPGQAPVLVIYLKNDRPSGIPDRFSGSSSGNTASLTITGAQAEDEADYYCNSRDSSGNHQVFGGGTKLTVL
notes: human IgG1
For B1, the binding result in experiment [1] and in experiment [2] was “no binding” in each case.

B2: COV_1170 (antibody, V domains shown)
VH: QVQLVESGGGVVQPGRSLRLSCAASGFTFSTYAMHWVRQAPGKGLEWVALISYDGSNKYYADSVKGRFTISRDNSKNTLDLQMNSLRAEDTAVYYCARSLGGYRTGFDYWGQGTLVTVSS
VL: DIQLTQSPSFLSASVGDRVTITCRASQGISSYLAWYQQKPGKAPKLLIYAASTLQSGVPSRFSGSGSGTEFTLTISSLQPEDFATYYCQQLNSYPPFTFGPGTKVDIKR
notes: human IgG1
With B2, the binding result in experiment [1] and in experiment [2] was “no binding” each time.

B3: COV_2134 (antibody, V domains shown)
VH: EVQLVESGGGVVQPGRSLRLSCAASGFIFSSYGMYWVRQAPGKGLEWVAVIWYDGSNKYYADSVKGRFTISRDNSKNTLYLQMNSLRAEDTAVYYCARDLSSSSGWDDYYYYYGMDVWGQGTTVTVSS
VL: not shown
notes: human IgG1
On to B3, for which the binding result in experiment [1] and in experiment [2] was “no binding” in each case.

B4: COV_1166 (antibody, V domains shown)
VH: EVQLVESGGGLVQPGGSLRLSCAVSGFTFRSFWMSWVRQTPGKGLEWVANIKEDGSEKYYVDSVKGRFTISRDNAKNSLYLQMNSLRAEDTAVYYCAREGRWELLGFAFDIWGQGTMVTVSS
VL: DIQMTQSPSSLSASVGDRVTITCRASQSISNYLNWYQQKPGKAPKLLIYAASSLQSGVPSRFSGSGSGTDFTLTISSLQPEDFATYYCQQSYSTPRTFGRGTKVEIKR
notes: human IgG1
Turning to B4, the binding result in experiment [1] and in experiment [2] was “no binding” in each case.

B5: COV_2077 (antibody, V domains shown)
VH: QVQLQESGPGLVKPSETLSLTCTVSGGSISSYSWSWIRQPPGKGLEWIGYIYYSGSTNYNPSLKSRVTISVDTSKNQFSLKLSSVTAADTAVYYCARESMGRYSLELRQPESAFDYWGRGTLVTVSS
VL: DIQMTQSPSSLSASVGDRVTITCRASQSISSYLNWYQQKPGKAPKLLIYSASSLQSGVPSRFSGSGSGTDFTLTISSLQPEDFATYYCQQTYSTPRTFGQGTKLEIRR
notes: human IgG1
With B5, the binding result in experiment [1] and in experiment [2] was “no binding” in each case.

B6: COV_1172 (antibody, V domains shown)
VH: QVQLQESGPGLVKPSETLSLTCTVSGGSIRSYYWSWIRQPPGKGLEWIGYIYYSGSTNYSPSLKSRVTISVDTSKNQFSLKLNSVTAADTAVYYCARRGLGYCSGDSCSNAFDIWGQGTMVTVSS
VL: DIQMTQSPSSLSASVGDRVTITCRASQSISSYLNWYQQKPGRAPELLIYDASSLQSGVPSGFSGSGSGTDFTLTISSLQPEDFATYYCQQSYSTPFTFGPGTKVDIKR
notes: human IgG1
Regarding B6, the binding result in experiment [1] and in experiment [2] was “no binding” throughout.

B7: COV_2143 (antibody, V domains shown)
VH: EVQLVESGGGVVQPGRSLRLSCAASGFTFNSFAMLWVRQAPGKGLEWVALFSYDGSNKYYADSVKGRFTISRDNSKNTLYLQMNNLRAVDTAVYYCARASPYDINGYYLHRIAFDIWGQGTMVTVSS
VL: QSVLMQPPSVSGAPGQRVTISCTGSSSNIGAGYDVHWYQQLPGTAPKLLMYGNSNRPSGVPDRFSGSKSGTSASLAITGLQAEDEADYYCQSYDSGLSGWVFGGGTKLTVLG
notes: human IgG1
B7: the binding result in experiment [1] and in experiment [2] was “no binding” throughout.

B8: COV_2048 (antibody, V domains shown)
VH: QVQLQESGPGLVKPSETLSLTCTVSGGSISNTSYYWGWIRQPPGKGLEWIGSIYRSGSTYYNPSLKSRVTISIDTSKNQFTLKLSSVTAADTAVYYCARDYYGDYSAKPMEYWGQGTLVTVSS
VL: QSALTQPRSVSGSPGQSVTISCTGTSSDVGGYNYVSWYQQHPGKAPKLLIYDVSKRPSGVPDRFSGSKSGNTASLTISGLQAEDEADYYCCSYAGSYVVFGGGAKLTVLG
notes: human IgG1
As to B8, the binding result in experiment [1] and in experiment [2] was “no binding” each time.

B9: COV_2093 (antibody, V domains shown)
VH: EVQLVESGGGLVQPGGSLRLSCAASGFMFNRFWMSWVRQAPGKGLEWVTNIKQDGSEKNYVDSVKGRFTISRDNAKNSLYLQMNSLRAEDTAVYYCARDGLYYDFRSPSPFYGMDVWGQGTTVTVSS
VL: DIQMTQSPSSLSASVGDRVTITCRASQSISSYLNWYQHKSGKAPKLLIYAASRLQSGVPSRFSGSGSGTDFTLTIVSLQPEDLATYYCQQSYSTPRTFGGGTKVEIKR
notes: human IgG1
For the molecule B9, the binding result in experiment [1] and in experiment [2] was “no binding” in each case.

B10: COV_1151 (antibody, V domains shown)
VH: QVQVQQWGAGLLKPSETLSLTCAVYGGSFNNYYWSWIRQPPGKGLEWIGEINHSGSTNYNPSLMSRVTISVDTSKNQFSLKLTSVTAADTAVYFCARGLPVTTFFSSYYGMDVWGQGTTVTVSS
VL: EIVLTQSPGTLSLSPGERATLSCRASQSVSRTYLAWYQQKPGQAPRLLIYGASSRATGIPDRFSGSGSGTDFTLTISRLEPEDFAVYYCQHYGSSPWTFGQGTKVEIRR
notes: human IgG1
For the molecule B10, the binding result in experiment [1] and in experiment [2] was “no binding” in each case.

B11: COV_1144 (antibody, V domains shown)
VH: EVQLVESGGGLVQPGGSLRLSCAASGFTFRSFWMSWVRQAPGKGLEWVANIKEDASEKHYVDPVKGRFTISRDNAKNSLYLQLNSLRAEDMAVYYCARVGRGYCTNGLCYTAFEYWGQGTLVTVSS
VL: DIQMTQSPSSLSASVGDRVTITCRTSQSISNYLNWYQQKPGKAPKLLIYAASSLQSGVPSRFSGSGSGTDFTLTISSLQPEDFATYYCQQSYSTAWTFGQGTKVEIRR
notes: human IgG1
For the molecule B11, the binding result in experiment [1] and in experiment [2] was “no binding” each time.

B12: COV_2123 (antibody, V domains shown)
VH: EVQLVESGGGVVQPGRSLRLSCAASGFTFSSYAMHWVRQAPGKGLEWVAVLSYDGSNKYNADSVKGRFTISRDNSKNTLYLQMNSLRVEDTAMYYCARDGVSVTMVRGVIGPLCDYWGQGTLVTVSS
VL: not shown
notes: human IgG1
With B12, in experiment [2], the binding result is on record as “no binding”.

B13: COV_2100 (antibody, V domains shown)
VH: EVQLVESGGGLVQPGGSLRLSCAASGFTFSSYDMYWVRQATGKGLEWVSAIGTAGDTYYPGSVKGRFTISRENAKNSLYLRMNSLRAGDTAVYFCARADKNTAMFFDYWGQGTLVTVSS
VL: DIQMTQSPSSLSASVGDRVTITCRASQNINNFLHWYQQKPGNAPKLLIYAASTLQSGVPSRFSGSGSGTDFTLTISSLQPEDFATYYCQQSYSTPGGTFGGGTKVEIK
notes: human IgG1
Turning to B13, the binding result in experiment [1] and in experiment [2] was “no binding” in each case.
